Assay results reported in doi:10.1101/2025.05.22.655486 (bioRxiv, 2025).

T1: Ectodomain of Arabidopsis thaliana MIK2, TwinStrep- and HA-tagged (Arabidopsis thaliana, UniProt Q8VZG8 44-709)
T1 sequence (looked up): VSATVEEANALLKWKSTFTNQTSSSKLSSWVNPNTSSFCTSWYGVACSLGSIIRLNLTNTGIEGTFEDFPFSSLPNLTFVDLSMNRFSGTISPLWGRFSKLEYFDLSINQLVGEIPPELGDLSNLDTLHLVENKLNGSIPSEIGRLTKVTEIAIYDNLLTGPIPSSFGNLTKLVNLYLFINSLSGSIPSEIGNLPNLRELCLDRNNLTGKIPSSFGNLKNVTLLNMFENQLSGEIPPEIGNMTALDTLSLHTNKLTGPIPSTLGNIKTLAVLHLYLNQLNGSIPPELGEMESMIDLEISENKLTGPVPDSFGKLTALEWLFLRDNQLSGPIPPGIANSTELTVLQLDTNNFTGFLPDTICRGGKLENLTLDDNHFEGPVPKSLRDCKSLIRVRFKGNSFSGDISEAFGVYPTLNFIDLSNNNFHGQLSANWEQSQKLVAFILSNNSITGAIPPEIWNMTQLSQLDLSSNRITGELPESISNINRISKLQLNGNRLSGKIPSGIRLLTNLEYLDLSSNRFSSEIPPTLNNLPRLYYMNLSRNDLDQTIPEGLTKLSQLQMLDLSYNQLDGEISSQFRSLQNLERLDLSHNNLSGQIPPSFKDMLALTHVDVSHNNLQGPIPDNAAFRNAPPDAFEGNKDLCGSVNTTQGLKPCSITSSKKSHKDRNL


Experiments:
[1] = biological target: Ectodomain of Arabidopsis thaliana FLAGELLIN-SENSING 2, TwinStrep- and HA-tagged (Arabidopsis thaliana, UniProt Q9FL28 24-806); assay: ligand-depletion assay
[2] = biological target: T1, Ectodomain of Arabidopsis thaliana …; assay: ligand-depletion assay

Ectodomain of Arabidopsis thaliana FLAGELLIN-SENSING 2, TwinStrep- and HA-tagged, sequence (Q9FL28 24-806): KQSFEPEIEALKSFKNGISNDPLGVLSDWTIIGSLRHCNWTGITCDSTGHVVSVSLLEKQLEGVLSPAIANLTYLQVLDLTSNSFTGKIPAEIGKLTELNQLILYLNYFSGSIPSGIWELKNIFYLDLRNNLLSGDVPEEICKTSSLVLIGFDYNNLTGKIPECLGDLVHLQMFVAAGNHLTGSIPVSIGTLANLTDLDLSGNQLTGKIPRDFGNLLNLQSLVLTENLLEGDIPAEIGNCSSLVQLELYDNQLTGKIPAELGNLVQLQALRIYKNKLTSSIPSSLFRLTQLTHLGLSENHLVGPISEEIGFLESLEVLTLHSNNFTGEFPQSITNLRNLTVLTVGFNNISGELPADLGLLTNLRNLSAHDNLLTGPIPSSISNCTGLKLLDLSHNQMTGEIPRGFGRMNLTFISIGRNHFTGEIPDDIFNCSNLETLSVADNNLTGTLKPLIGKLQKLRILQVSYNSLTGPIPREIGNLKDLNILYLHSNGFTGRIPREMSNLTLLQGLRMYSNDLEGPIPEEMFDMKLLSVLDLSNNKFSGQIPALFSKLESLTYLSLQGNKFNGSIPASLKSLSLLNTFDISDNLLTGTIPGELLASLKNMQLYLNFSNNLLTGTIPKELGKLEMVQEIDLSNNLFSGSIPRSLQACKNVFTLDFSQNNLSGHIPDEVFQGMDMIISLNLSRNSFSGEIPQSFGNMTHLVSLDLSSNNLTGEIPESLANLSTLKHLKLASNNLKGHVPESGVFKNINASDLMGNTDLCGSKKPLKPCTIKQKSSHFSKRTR

Binder	binding result [1]	binding result [2]
QRLSTGSRINSAKDDAAGLQIA [flg22 peptide]	binds	–
PVRSSQSSQAGGR [AtSCOOP12 (SERINE-RICH ENDOGENOUS PEPTIDE 12)]	–	binds
